From patent US20190345535A1

Columns and labels:
Test in all cases: cell-based or functional assay
[1] = molecular target: GFP^2-Pflu1-RLuc2 fusion protein (Pflu sensor 1)
[2] = molecular target: GFP^2-Pflu2-RLuc2 fusion protein (Pflu sensor 2)
[3] = molecular target: GFP^2-Pflu3-RLuc2 fusion protein (Pflu sensor 3)
[4] = molecular target: GFP^2-plas1-RLuc2 fusion protein (BRET^2 plasmin sensor)
[5] = molecular target: GFP^2-Pflu-H3-RLuc2 fusion protein

Chain of human plasmin (Sigma) (P00747 97-810 limits assumed): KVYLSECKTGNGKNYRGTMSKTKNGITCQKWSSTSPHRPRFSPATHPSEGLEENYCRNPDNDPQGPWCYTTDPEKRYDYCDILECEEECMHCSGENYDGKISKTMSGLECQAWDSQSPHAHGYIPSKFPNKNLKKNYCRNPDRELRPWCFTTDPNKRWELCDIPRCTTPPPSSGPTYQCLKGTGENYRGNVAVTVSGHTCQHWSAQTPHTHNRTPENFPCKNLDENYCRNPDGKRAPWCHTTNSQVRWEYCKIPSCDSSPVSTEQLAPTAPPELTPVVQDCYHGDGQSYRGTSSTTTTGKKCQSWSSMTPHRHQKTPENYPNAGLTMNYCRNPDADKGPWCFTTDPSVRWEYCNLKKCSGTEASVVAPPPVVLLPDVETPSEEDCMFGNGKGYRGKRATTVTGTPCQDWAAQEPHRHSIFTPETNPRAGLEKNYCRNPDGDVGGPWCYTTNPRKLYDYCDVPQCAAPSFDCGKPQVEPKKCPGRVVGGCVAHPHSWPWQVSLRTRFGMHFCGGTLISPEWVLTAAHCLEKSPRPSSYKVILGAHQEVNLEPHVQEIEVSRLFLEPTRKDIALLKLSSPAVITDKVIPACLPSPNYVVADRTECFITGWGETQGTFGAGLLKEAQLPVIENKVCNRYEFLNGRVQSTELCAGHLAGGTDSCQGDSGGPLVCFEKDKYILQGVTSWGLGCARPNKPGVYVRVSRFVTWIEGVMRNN
Chain of bovine plasmin (Sigma) (P06868 104-812 limits assumed): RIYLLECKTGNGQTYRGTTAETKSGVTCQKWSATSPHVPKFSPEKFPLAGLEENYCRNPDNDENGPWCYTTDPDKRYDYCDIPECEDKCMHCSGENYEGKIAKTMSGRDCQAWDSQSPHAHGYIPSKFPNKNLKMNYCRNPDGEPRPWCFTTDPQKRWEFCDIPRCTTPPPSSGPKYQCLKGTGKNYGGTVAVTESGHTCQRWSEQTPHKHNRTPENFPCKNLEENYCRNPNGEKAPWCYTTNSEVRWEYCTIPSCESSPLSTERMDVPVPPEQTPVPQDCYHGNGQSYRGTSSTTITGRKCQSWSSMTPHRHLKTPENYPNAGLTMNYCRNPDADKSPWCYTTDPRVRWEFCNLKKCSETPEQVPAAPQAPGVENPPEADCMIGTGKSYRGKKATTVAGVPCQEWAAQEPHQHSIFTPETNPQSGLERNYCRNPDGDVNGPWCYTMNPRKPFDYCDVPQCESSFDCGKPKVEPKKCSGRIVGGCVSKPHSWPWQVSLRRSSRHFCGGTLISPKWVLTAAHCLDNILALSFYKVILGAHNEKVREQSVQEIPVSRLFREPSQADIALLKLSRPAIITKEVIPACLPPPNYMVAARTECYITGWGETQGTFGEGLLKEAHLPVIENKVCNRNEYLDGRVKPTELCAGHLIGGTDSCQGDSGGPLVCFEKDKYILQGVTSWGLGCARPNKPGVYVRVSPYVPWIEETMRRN

| Substance | EC50, BRET^2 response, raw milk [1] | EC50, BRET^2 response, raw milk, protease concentration by BSA standard [1] | EC50, BRET^2 response, 50% full fat UHT milk [1] | EC50, BRET^2 response, 50% full fat UHT milk [2] | EC50, BRET^2 response, 50% full fat UHT milk [3] | EC50, BRET^2 response, 50% full fat UHT milk [4] | EC50, BRET^2 response, raw milk [5] | other results |
| --- | --- | --- | --- | --- | --- | --- | --- | --- |
| crude bacterial protease from Pseudomonas fluorescens strain 117 (enzyme) | 0.2 nM | 2.6 nM |  |  |  |  |  |  |
| human plasmin (Sigma) (from UniProt P00747 97-810) (enzyme) |  |  | 124 nM | 926 nM | 1280 nM | 5.6 nM |  | EC50, BRET^2 response, heat treated raw milk, one-step pre-treatment protocol [4]: 24.2 nM; EC50, BRET^2 response, heat treated raw milk, one-step pre-treatment with low power sonication [4]: 29.3 nM; EC50, BRET^2 response, heat treated raw milk, pre-treatment protocol of Rauh et al. (2014) [4]: 19.5 nM; EC50, BRET^2 response, heat treated raw milk, two-step pre-treatment protocol [4]: 16 nM |
| bovine plasmin (Sigma) (from UniProt P06868 97-805) (enzyme) |  |  | 169 nM |  |  | 108 nM | 174 nM |  |
| crude bacterial protease from Pseudomonas fluorescens strain 65 (enzyme) | 0.14 nM | 1.63 nM | 0.7 nM | 2.6 nM | 2.3 nM | 50 nM | 0.5 nM | EC50, BRET^2 response, raw milk, protease concentration by BSA standard [5]: 5.4 nM; EC50, BRET^2 response, 50% full fat UHT milk, protease concentration by BSA standard [1]: 8.2 nM; EC50, BRET^2 response, 50% raw milk, no pre-treatment, 10 mins. incubation [1]: 0.14 nM; EC50, BRET^2 response, 50% raw milk, no pre-treatment, 2 hrs incubation [1]: 0.0339 nM; EC50, BRET^2 response, 50% raw milk, pre-treatment, 10 mins. incubation [1]: 0.353 nM; EC50, BRET^2 response, 50% raw milk, pre-treatment, 2 hrs incubation [1]: 0.1 nM; EC50, BRET^2 response, 50% full fat UHT milk, protease concentration by BSA standard [2]: 30.4 nM; EC50, BRET^2 response, 50% full fat UHT milk, protease concentration by BSA standard [3]: 26.4 nM; EC50, BRET^2 response, 50% full fat UHT milk, protease concentration by BSA standard [4]: 580 nM; EC50, BRET^2 response, raw milk [4]: 1.4 nM; EC50, BRET^2 response, raw milk, protease concentration by BSA standard [4]: 16.2 nM |
